# Test results: patent US20040143095A1 (RESEARCH DEVELOPMENT FOUNDATION, published 2004)
# Where no end group is shown, it is not given here.
# T1: human CRF receptor type 1 (human, UniProt P34998 24-415)
# T1 sequence (looked up): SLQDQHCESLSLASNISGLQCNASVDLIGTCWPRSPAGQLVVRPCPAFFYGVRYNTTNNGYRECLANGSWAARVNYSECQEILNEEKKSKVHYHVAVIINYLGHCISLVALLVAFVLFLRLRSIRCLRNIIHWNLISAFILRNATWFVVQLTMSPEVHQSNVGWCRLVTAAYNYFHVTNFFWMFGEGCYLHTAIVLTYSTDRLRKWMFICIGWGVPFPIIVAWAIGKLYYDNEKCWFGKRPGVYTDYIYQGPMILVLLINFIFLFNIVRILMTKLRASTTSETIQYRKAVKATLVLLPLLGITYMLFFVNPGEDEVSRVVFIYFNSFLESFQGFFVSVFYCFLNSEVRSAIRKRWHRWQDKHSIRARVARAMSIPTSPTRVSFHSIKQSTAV
# T2: endogenous CRF-R1 of primary rat anterior pituitary cells (rat, UniProt P35353 24-415)
# T2 sequence (looked up): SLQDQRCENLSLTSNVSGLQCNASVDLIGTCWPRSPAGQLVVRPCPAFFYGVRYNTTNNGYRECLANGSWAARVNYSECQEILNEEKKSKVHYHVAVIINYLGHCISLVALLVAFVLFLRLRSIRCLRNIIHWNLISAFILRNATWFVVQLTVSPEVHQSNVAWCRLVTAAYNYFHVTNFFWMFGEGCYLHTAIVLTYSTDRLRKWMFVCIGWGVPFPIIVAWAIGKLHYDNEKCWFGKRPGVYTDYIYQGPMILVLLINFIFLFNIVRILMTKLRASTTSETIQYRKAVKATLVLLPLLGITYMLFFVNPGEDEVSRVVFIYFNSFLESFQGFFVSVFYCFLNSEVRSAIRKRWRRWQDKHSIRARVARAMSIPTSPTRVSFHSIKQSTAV
# Columns and labels:
# [1] = molecular target: T1, human CRF receptor type 1; experiment: cell-based or functional assay
# [2] = molecular target: T2, endogenous CRF-R1 of primary rat …; experiment: cell-based or functional assay
Binder,"cAMP in CHO cells stably expressing hCRF-R1 (EC50, nM) [1] [nM]","cAMP accumulation in primary rat anterior pituitary cells, EC50 [2] [nM]"
"VILSLDVPIGLLRILLEQARYKAARNQAATNAQILAHV (peptide, UniProt Q99ML8 73-110, looked up) [Urocortin II (mouse)]",> 100,
"DDPPLSIDLTFHLLRTLLELARTQSQRERAEQNRIIFDSV (peptide, UniProt P55090 81-120, looked up) [Urocortin (rat)]",,2.3
"IVLSLDVPIGLLQILLEQARARAAREQATTNARILARV (peptide, UniProt Q96RP3 72-109, looked up) [Urocortin II (human)]",> 100,

# Next, values leading:
"cAMP in CHO cells stably expressing hCRF-R1 (EC50, nM) [1] [nM]","cAMP accumulation in primary rat anterior pituitary cells, EC50 [2] [nM]",Binder
> 100,,FTLSLDVPTNIMNLLFNIAKAKNLRAQAAANAHLMAQI-NH2 [Urocortin III (human)]
> 100,,FTLSLDVPTNIMNILFNIDKAKNLRAKAAANAQLMAQI-NH2 [Urocortin III (mouse)]
